Patent publication US20120201746A1 (AbbVie / Abbott, published 2012)

Legend:
[1] = molecular target: T1, cell surface CD28 on Jurkat E6-1 cells (UniProt P10747 19-220, limits assumed); assay: flow cytometry on Jurkat E6-1 cells
T1 construct: whole, on cells; Jurkat is a human cell line
Method: Jurkat E6-1 cells (ATCC, Manassas, Va.) were harvested and washed with PBS, and resuspended in ice cold PBS with 10% FCS (GIBCO®) at 2×10⁷ cells/ml. Anti-CD28 antibodies or half-Ig binding protein (1 μl) was added to tubes containing 100 μl of cell suspension, then incubated on ice for 30 min. The cells were washed 3 times and resuspended in ice cold PBS, then stained with PE labeled anti-human IgG1 antibody (Southern Biotech, Birmingham, Ala.) according to manufacturer's instructions. After secondary staining, the cells were washed and resuspended in ice cold PBS with 10% FCS. FACS analysis was performed on a FACScan (Becton Dickinson, Franklin Lakes, N.J.).

[2] = molecular target: Recombinant Human TNF-α/TNFSF1A (human, UniProt P01375 77-233); assay: SPR (BIAcore)
Sequence of Recombinant Human TNF-α/TNFSF1A (P01375 77-233 limits assumed): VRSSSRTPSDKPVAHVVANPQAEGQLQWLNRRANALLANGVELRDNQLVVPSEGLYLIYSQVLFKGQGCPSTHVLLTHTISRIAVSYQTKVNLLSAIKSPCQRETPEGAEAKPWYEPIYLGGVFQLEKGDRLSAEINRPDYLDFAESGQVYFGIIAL
Method: The BIAcore® assay (BIAcore®, Inc, Piscataway, N.J.) determines the affinity of antibodies with kinetic measurements of on-rate and off-rate constants. Binding of antibodies to a target antigen (for example, a purified recombinant target antigen) is determined by surface plasmon resonance-based measurements with a BIAcore® 1000 or 3000 instrument (BIAcore® AB, Uppsala, Sweden) using running HBS-EP (10 mM HEPES [pH 7.4], 150 mM NaCl, 3 mM EDTA, and 0.005% surfactant P20) at 25° C. […] Unreacted moieties on the biosensor surface are blocked with ethanolamine. Modified carboxymethyl dextran surface in flowcell 2 and 4 is used as a reaction surface. Unmodified carboxymethyl dextran without goat anti-mouse IgG in flow cell 1 and 3 is used as the reference surface. For kinetic analysis, rate equations derived from the 1:1 Langmuir binding model are fitted simultaneously to association and dissociation phases of all eight injections (using global fit analysis) with the use of Biaevaluation 4.0.1 software. Purified antibodies are diluted in HEPES-buffered saline for capture across goat anti-mouse IgG specific reaction surfaces. […] The association and dissociation rate constants, kₒₙ (M⁻¹s⁻¹) and koff (s⁻¹), are determined under a continuous flow rate of 25 μl/minute. Rate constants are derived by making kinetic binding measurements at different antigen concentrations ranging from 10-200 nM. The equilibrium dissociation constant (M) of the reaction between antibodies and the target antigen is then calculated from the kinetic rate constants by the following formula: KD=koff/kₒₙ. Binding is recorded as a function of time and kinetic rate constants are calculated.

Binder	binding result [1]	kon [2] [M⁻¹ s⁻¹]
Anti-CD28 Ig (parental antibody 9.3) (antibody, human IgG1, kappa, V domains shown, 9.3 variable domains on human Cg1 (z, non-a) and human Ck; also called anti-CD28 antibody 9.3) VH: QVKLQQSGAELVKPGASVRLSCKASGYTFTEYIIHWIKLRSGQGLEWIGWFYPGSNDIQYNAKFKGKATLTADKSSSTVYMELTGLTSEDSAVYFCARRDDFSGYDALPYWGQGTMVTVSS VL: DIQMTQSPASLSVSVGETVTITCRTNENIYSNLAWYQQKQGKSPQLLIYAATHLVEGVPSRFSGSGSGTQYSLKITSLQSEDFGNYYCQHFWGTPCTFGGGTKLEIKR	binds	
½ hTNFaR Fc (Fc fusion, Half receptor-Fc with Fc-Mut18; 55 % half-Ig by SEC; also called half hTNFaR Fc) LPAQVAFTPYAPEPGSTCRLREYYDQTAQMCCSKCSPGQHAKVFCTKTSDTVCDSCEDSTYTQLWNWVPECLSCGSRCSSDQVETQACTREQNRICTCRPGWYCALSKQEGCRLCAPLRKCRPGFGVARPGTETSDVVCKPCAPGTFSNTTSSTDICRPHQICNVVAIPGNASMDAVCTSTSPTRSMAPGAVHLPQPVSTRSQHTQPTPEPSTAPSTSFLLPMGPSPPAEGSTGDEPKSSDKTHTSPPSPAPELLGGPSVFLFPPKPKDTLMISRTPEVTCVVVDVSHEDPEVKFNWYVDGVEVHNAKTKPREEQYNSTYRVVSVLTVLHQDWLNGKEYKCKVSNKALPAPIEKTISKAKGQPREPQVYTLPPSREEMTKNQVSLTCLVKGFYPSDIAVEWESNGQPENNYKTTPPVLDSDGSFRLYSKLTVDKSRWQQGNVFSCSVMHEALHNHYTQKSLSLSPGK		1.9e+06
